Results reported in PMC1831719, “Elucidating the Ticking of an In Vitro Circadian Clockwork” (PLoS Biology, 2007).

Molecular target: the molecule itself
Experiment: negative-stain electron microscopy with image classification; aliquots every 3 h from the oscillating KaiA/KaiB/KaiC mixture (50 ng/ul KaiA, 50 ng/ul KaiB, 200 ng/ul KaiC, 1 mM ATP, 30 °C); 0.75% uranyl formate; particles sorted into four meta classes at seven phases

B1: KaiC (natural protein, S. elongatus, UniProt Q79PF4 1-519, looked up)
chain: MTSAEMTSPNNNSEHQAIAKMRTMIEGFDDISHGGLPIGRSTLVSGTSGTGKTLFSIQFLYNGIIEFDEPGVFVTFEETPQDIIKNARSFGWDLAKLVDEGKLFILDASPDPEGQEVVGGFDLSALIERINYAIQKYRARRVSIDSVTSVFQQYDASSVVRRELFRLVARLKQIGATTVMTTERIEEYGPIARYGVEEFVSDNVVILRNVLEGERRRRTLEILKLRGTSHMKGEYPFTITDHGINIFPLGAMRLTQRSSNVRVSSGVVRLDEMCGGGFFKDSIILATGATGTGKTLLVSRFVENACANKERAILFAYEESRAQLLRNAYSWGMDFEEMERQNLLKIVCAYPESAGLEDHLQIIKSEINDFKPARIAIDSLSALARGVSNNAFRQFVIGVTGYAKQEEITGLFTNTSDQFMGAHSITDSHISTITDTIILLQYVEIRGEMSRAINVFKMRGSWHDKAIREFMISDKGPDIKDSFRNFERIISGSPTRITVDEKSELSRIVRGVQEKGPES
notes: KaiC, circadian clock protein of Synechococcus elongatus; In the cycling reaction KaiC oscillates between hypo- and hyperphosphorylated forms (sites T426, S431, T432); also called KaiC hexamer; P-KaiC; source: E. coli, purified
- stoichiometry N: 6
